Measured values as given in patent publication US20260028403A1 (Zymeworks, published 2026).

B1: v34918 (trispecific antibody, human IgG1, kappa, L234A L235A)
heavy 1: QVQLQESGPGLVKPSETLSLTCAVSGFSLTSYGVHWIRQPPGKGLEWLGVIWPGGGTNFNSALMSRLTISEDTSKNQVSLKLSSVTAADTAVYYCARDRAYGNYLYAMDYWGQGTLVTVSSASTKGPSVFPLAPSSKSTSGGTAALGCLVKDYFPEPVTVSWNSGALTSGVHTFPAVLQSSGLYSLSSVVTVPSSSLGTQTYICNVNHKPSNTKVDKKVEPKSCDKTHTCPPCPAPEAAGGPSVFLFPPKPKDTLMISRTPEVTCVVVSVSHEDPEVKFNWYVDGVEVHNAKTKPREEQYNSTYRVVSVLTVLHQDWLNGKEYKCKVSNKALPAPIEKTISKAKGQPREPQVYVYPPSRDELTKNQVSLTCLVKGFYPSDIAVEWESNGQPENNYKTTPPVLDSDGSFALVSKLTVDKSRWQQGNVFSCSVMHEALHNHYTQKSLSLSPGGGGGSGNFMLTQPHSVSESPGKTVTISCKRNTGNIGSNYVNWYQQHEGSSPTTIIYRNDKRPDGVSDRFSGSIDRSSKSASLTISNLKTEDEADYFCQSYSSGFIFGGGTKLTVLGGGGSGGGGSGGGGSGGGGSEVQLVESGGGLVQPGGSLRLSCAASGVTFNYYGMSWIRQAPGKGLEWVASITSSGGRIYYPDSVKGRFTISRENTQKTLYLQMNSLRAEDTAVYYCTLDGRDGWVAYWGQGTLVTVSS
heavy 2: EIVLTQSPATLSLSPGERVTMSCSASSSVSYMHWYQQKPGQAPRLWIYDTSKLASGVPARFSGSGSGTDYTLTISSVEPEDNAVYYCQQWSGHPLTFGQGTKVEIKGGGGSGGGGSGGGGSGGGGSQVQLVQSGAEVKKPGASVKISCKASGYSFTGYTMNWVRQAPGQGLEWIGLITPYSGASSYAQKFQGRATLTVDKSTSTAYMELSSLRSEDTAVYYCARGGYDGRGFDYWGQGTNVTVSSAAEPKSSDKTHTCPPCPAPEAAGGPSVFLFPPKPKDTLMISRTPEVTCVVVSVSHEDPEVKFNWYVDGVEVHNAKTKPREEQYNSTYRVVSVLTVLHQDWLNGKEYKCKVSNKALPAPIEKTISKAKGQPREPQVYVLPPSRDELTKNQVSLLCLVKGFYPSDIAVEWESNGQPENNYLTWPPVLDSDGSFFLYSKLTVDKSRWQQGNVFSCSVMHEALHNHYTQKSLSLSPG
light: DIQMTQSPSSLSASVGDRVTITCRASESVEYYVTSLMQWYQQKPGKAPKLLIYAASNVDSGVPSRFSGSGSGTDFTLTISSLQPEDIATYYCQQSRKVPFTFGGGTKVEIKRTVAAPSVFIFPPSDEQLKSGTASVVCLLNNFYPREAKVQWKVDNALQSGNSQESVTEQDSKDSTYSLSSTLTLSKADYEKHKVYACEVTHQGLSSPVTKSFNRGEC
notes: Het Fc, FcKO; also called CD28xCD3xMSLN trispecific
B2: v37633 (trispecific antibody, human IgG1, lambda, L234A L235A)
heavy 1: not shown
heavy 2: QVQLVESGGGLVQPGGSLRLSCSVSGIDLSSNPMIWVRQAPGKGLQYIGIIDTDGSTYYADWAKGRFTISKDSTTVYLQINSPRAEDTAVYYCARRLHGSSNGYYDDLWGQGTLVTVSSGGGGSGGGGSGGGGSGGGGSDGQMTQSPSSVSASVGDRVTITCQASQSIYSYLSWYQQKPGQRPKLLIYKASTLASGVPSRFSGSGSGTDFTLTISSVQPEDFATYYCQQGYTVTNVDKNTFGGGTKVEIKAAEPKSSDKTHTCPPCPAPEAAGGPSVFLFPPKPKDTLMISRTPEVTCVVVSVSHEDPEVKFNWYVDGVEVHNAKTKPREEQYNSTYRVVSVLTVLHQDWLNGKEYKCKVSNKALPAPIEKTISKAKGQPREPQVYVLPPSRDELTKNQVSLLCLVKGFYPSDIAVEWESNGQPENNYLTWPPVLDSDGSFFLYSKLTVDKSRWQQGNVFSCSVMHEALHNHYTQKSLSLSPG
light: NFMLTQPHSVSESPGKTVTISCKRNTGNIGSNYVNWYQQHEGSSPTTIIYRNDKRPDGVSDRFSGSIDRSSKSASLTISNLKTEDEADYFCQSYSSGFIFGGGTKLTVLGQPKAAPSVTLFPPSSEELQANKATLVCLISDFYPGAVTVAWKADSSPVKAGVETTTPSKQSNNKYAASSYLSLTPEQWKSHRSYSCQVTHEGSTVEKTVAPTECS
notes: Het Fc, FcKO; also called CD28xCD3xCldn18.2 trispecific
B3: v37635 (trispecific antibody, human IgG1, lambda, L234A L235A)
heavy 1: EVQLVESGGGLVQPGGSLRLSCAASGVTFNYYGMSWIRQAPGKGLEWVASITSSGGRIYYPDSVKGRFTISRENTQKTLYLQMNSLRAEDTAVYYCTLDGRDGWVAYWGQGTLVTVSSASTKGPSVFPLAPSSKSTSGGTAALGCLVKDYFPEPVTVSWNSGALTSGVHTFPAVLQSSGLYSLSSVVTVPSSSLGTQTYICNVNHKPSNTKVDKKVEPKSCDKTHTCPPCPAPEAAGGPSVFLFPPKPKDTLMISRTPEVTCVVVSVSHEDPEVKFNWYVDGVEVHNAKTKPREEQYNSTYRVVSVLTVLHQDWLNGKEYKCKVSNKALPAPIEKTISKAKGQPREPQVYVYPPSRDELTKNQVSLTCLVKGFYPSDIAVEWESNGQPENNYKTTPPVLDSDGSFALVSKLTVDKSRWQQGNVFSCSVMHEALHNHYTQKSLSLSPGGGGGSGDIQMTQSPSSLSASVGDRVTITCRASESVEYYVTSLMQWYQQKPGKAPKLLIYAASNVDSGVPSRFSGSGSGTDFTLTISSLQPEDIATYYCQQSRKVPFTFGGGTKVEIKGGGGSGGGGSGGGGSGGGGSQVQLQESGPGLVKPSETLSLTCAVSGFSLTSYGVHWIRQPPGKGLEWLGVIWPGGGTNFNSALMSRLTISEDTSKNQVSLKLSSVTAADTAVYYCARDRAYGNYLYAMDYWGQGTLVTVSS
heavy 2: QVQLVESGGGLVQPGGSLRLSCSVSGIDLSSNPMIWVRQAPGKGLQYIGIIDTDGSTYYADWAKGRFTISKDSTTVYLQINSPRAEDTAVYYCARRLHGSSNGYYDDLWGQGTLVTVSSGGGGSGGGGSGGGGSGGGGSDGQMTQSPSSVSASVGDRVTITCQASQSIYSYLSWYQQKPGQRPKLLIYKASTLASGVPSRFSGSGSGTDFTLTISSVQPEDFATYYCQQGYTVTNVDKNTFGGGTKVEIKAAEPKSSDKTHTCPPCPAPEAAGGPSVFLFPPKPKDTLMISRTPEVTCVVVSVSHEDPEVKFNWYVDGVEVHNAKTKPREEQYNSTYRVVSVLTVLHQDWLNGKEYKCKVSNKALPAPIEKTISKAKGQPREPQVYVLPPSRDELTKNQVSLLCLVKGFYPSDIAVEWESNGQPENNYLTWPPVLDSDGSFFLYSKLTVDKSRWQQGNVFSCSVMHEALHNHYTQKSLSLSPG
light: NFMLTQPHSVSESPGKTVTISCKRNTGNIGSNYVNWYQQHEGSSPTTIIYRNDKRPDGVSDRFSGSIDRSSKSASLTISNLKTEDEADYFCQSYSSGFIFGGGTKLTVLGQPKAAPSVTLFPPSSEELQANKATLVCLISDFYPGAVTVAWKADSSPVKAGVETTTPSKQSNNKYAASSYLSLTPEQWKSHRSYSCQVTHEGSTVEKTVAPTECS
notes: Het Fc, FcKO; also called CD3xCD28xCldn18.2 trispecific
B4: v37663 (bispecific antibody, human IgG1, lambda, L234A L235A)
heavy 1: not shown
heavy 2: QVQLVESGGGLVQPGGSLRLSCSVSGIDLSSNPMIWVRQAPGKGLQYIGIIDTDGSTYYADWAKGRFTISKDSTTVYLQINSPRAEDTAVYYCARRLHGSSNGYYDDLWGQGTLVTVSSGGGGSGGGGSGGGGSGGGGSDGQMTQSPSSVSASVGDRVTITCQASQSIYSYLSWYQQKPGQRPKLLIYKASTLASGVPSRFSGSGSGTDFTLTISSVQPEDFATYYCQQGYTVTNVDKNTFGGGTKVEIKAAEPKSSDKTHTCPPCPAPEAAGGPSVFLFPPKPKDTLMISRTPEVTCVVVSVSHEDPEVKFNWYVDGVEVHNAKTKPREEQYNSTYRVVSVLTVLHQDWLNGKEYKCKVSNKALPAPIEKTISKAKGQPREPQVYVLPPSRDELTKNQVSLLCLVKGFYPSDIAVEWESNGQPENNYLTWPPVLDSDGSFFLYSKLTVDKSRWQQGNVFSCSVMHEALHNHYTQKSLSLSPG
light: NFMLTQPHSVSESPGKTVTISCKRNTGNIGSNYVNWYQQHEGSSPTTIIYRNDKRPDGVSDRFSGSIDRSSKSASLTISNLKTEDEADYFCQSYSSGFIFGGGTKLTVLGQPKAAPSVTLFPPSSEELQANKATLVCLISDFYPGAVTVAWKADSSPVKAGVETTTPSKQSNNKYAASSYLSLTPEQWKSHRSYSCQVTHEGSTVEKTVAPTECS
notes: 13B08 VH-VL scFv); also called anti-(CLDN18.2xCD3) bispecific control

What was measured:
[1] = biological target: T1, Recombinant MSLN his tag protein (R&D systems) (UniProt Q13421 296-580, limits assumed); experiment: SPR Biacore T200, MSLN-his on CM5, construct flowed, 1:1 model
T1 construct: his tag; also called mesothelin

[2] = biological target: T2, Recombinant human CD3 epsilon/delta heterodimer, his tag protein (Acro Biosystems) (human, UniProt P07766 23-126; P04234 22-105); experiment: SPR Biacore T200, CD3 e/d-his on CM5, construct injected, 1:1 model;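 further: measured at 25 °C in HEPES-buffered saline with EDTA and Tween 20 at pH 7.4, values are means of three independent runs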
T2 construct: bought

[3] = biological target: T3, Recombinant human/cynomolgus/rhesus macaque CD28 mouse IgG2a Fc fusion protein (Acro Biosystems) (human/cynomolgus/rhesus macaque, UniProt P10747 19-152); experiment: SPR Biacore T200, CD28-mIgG2a Fc on CM5, construct injected, 1:1 model;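 further: fc fusion captured by amine coupling, run at 25 °C in HEPES buffer pH 7.4, association 140-500 s then dissociation 600-1200 s, values averaged over three independent runs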
T3 construct: bought; also called huCD28

Human CLDN18.2 = biological target: T4, Human CLDN18.2 (human); experiment: flow cytometry, SNU 601 cells
T4 construct: on transfected HEK293-6E cells or native on SNU 601 cells

Binder	Kd [1]	koff [1]	kon [1]	Kd [2]	koff [2]	kon [2]	Kd [3]	koff [3]	kon [3]	Bmax (Human CLDN18.2)	EC50 (Human CLDN18.2)
B1	7.08 nM	0.00187 s⁻¹	294000 M⁻¹ s⁻¹	118 nM	0.0135 s⁻¹	118000 M⁻¹ s⁻¹	50 nM	0.00259 s⁻¹	52700 M⁻¹ s⁻¹		
B2				135 nM	0.0176 s⁻¹	130000 M⁻¹ s⁻¹	55.1 nM	0.0062 s⁻¹	113000 M⁻¹ s⁻¹	8570 MFI	40.8 nM
B3				92.5 nM	0.0143 s⁻¹	157000 M⁻¹ s⁻¹	288 nM	0.0107 s⁻¹	40400 M⁻¹ s⁻¹	6600 MFI	30.1 nM
B4				76.4 nM	0.0157 s⁻¹	206000 M⁻¹ s⁻¹				9200 MFI	31.3 nM
